What was measured:
the 23-mer peptide = test: BIAcore; format not described
[1] = biological target: CD31shed (residual cell-bound human CD31 after shedding between the 5th and 6th extracellular Ig-like domains) (human) (UniProt P16284); test: 10-colour flow cytometry on human peripheral blood leukocytes of a healthy donor, WM59-PE against PECAM 1.2-FITC; gate CD20 = B lymphocytes
[2] = biological target: CD31shed (residual cell-bound human CD31 after shedding between the 5th and 6th extracellular Ig-like domains) (human) (UniProt P16284); test: 10-colour flow cytometry on human peripheral blood leukocytes of a healthy donor, WM59-PE against PECAM 1.2-FITC; gate 3 (CD4) = naive CD4+ T cells
[3] = biological target: CD31shed (residual cell-bound human CD31 after shedding between the 5th and 6th extracellular Ig-like domains) (human) (UniProt P16284); test: 10-colour flow cytometry on human peripheral blood leukocytes of a healthy donor, WM59-PE against PECAM 1.2-FITC; gate 3 (CD8) = naive CD8+ T cells
[4] = biological target: CD31shed (residual cell-bound human CD31 after shedding between the 5th and 6th extracellular Ig-like domains) (human) (UniProt P16284); test: 10-colour flow cytometry on human peripheral blood leukocytes of a healthy donor, WM59-PE against PECAM 1.2-FITC; gate 2 (CD8) = memory CD8+ T cells
[5] = biological target: CD31shed (residual cell-bound human CD31 after shedding between the 5th and 6th extracellular Ig-like domains) (human) (UniProt P16284); test: 10-colour flow cytometry on human peripheral blood leukocytes of a healthy donor, WM59-PE against PECAM 1.2-FITC; gate 1 (CD4) = activated CD4+ T cells
[6] = biological target: human CD31 (PECAM-1) (human) (UniProt P16284); test: 10-colour flow cytometry on human peripheral blood leukocytes of a healthy donor, WM59-PE against PECAM 1.2-FITC; gate CD20 = B lymphocytes
[7] = biological target: human CD31 (PECAM-1) (human) (UniProt P16284); test: 10-colour flow cytometry on human peripheral blood leukocytes of a healthy donor, WM59-PE against PECAM 1.2-FITC; gate 3 (CD4) = naive CD4+ T cells
[8] = biological target: human CD31 (PECAM-1) (human) (UniProt P16284); test: 10-colour flow cytometry on human peripheral blood leukocytes of a healthy donor, WM59-PE against PECAM 1.2-FITC; gate 3 (CD8) = naive CD8+ T cells
[9] = biological target: human CD31 (PECAM-1) (human) (UniProt P16284); test: 10-colour flow cytometry on human peripheral blood leukocytes of a healthy donor, WM59-PE against PECAM 1.2-FITC; gate 2 (CD8) = memory CD8+ T cells
[10] = biological target: human CD31 (PECAM-1) (human) (UniProt P16284); test: 10-colour flow cytometry on human peripheral blood leukocytes of a healthy donor, WM59-PE against PECAM 1.2-FITC; gate 1 (CD4) = activated CD4+ T cells
[11] = biological target: the molecule itself; test: SPR (BIAcore 2000), peptide coated on CM5 chip, same peptide injected at 12.5-100 µM
Description: Plasmon Surface Resonance. Homophilic binding association and dissociation constants were calculated by surface plasmon resonance (BIAcore® 2000, GE). […] Dissociation was monitored for 300 seconds. Association (kon) and dissociation (koff) constants were calculated using the BIAevaluation 3.0 Software (GE).

“alternatively spliced soluble CD31 (receptor)” showed a Kd (the 23-mer peptide) of 17 µM.

Molecule “anti-CD31 monoclonal antibody clone PECAM 1.2” has a percent of gated cells in the lower right quadrant (dom1-/dom6+) [1] of 12, a percent of gated cells in the lower right quadrant (dom1-/dom6+) [2] of 28.1 and a percent of gated cells in the lower right quadrant (dom1-/dom6+) [3] of 23.5. For the same molecule, the percent of gated cells in the lower right quadrant (dom1-/dom6+) [4] was 29.7 and the percent of gated cells in the lower right quadrant (dom1-/dom6+) [5] was 90.6.

For “anti-CD31 monoclonal antibody clone WM-59”, the percent of gated cells in the upper right quadrant (dom1+/dom6+) [6] was 88, the percent of gated cells in the upper right quadrant (dom1+/dom6+) [7] was 71.9 and the percent of gated cells in the upper right quadrant (dom1+/dom6+) [8] was 76.5. The percent of gated cells in the upper right quadrant (dom1+/dom6+) [9] was 70.3 and the percent of gated cells in the upper right quadrant (dom1+/dom6+) [10] was 9.4.

B1: mouse CD31 peptide 551-574 (peptide)
peptide: SSMRTSPRSSTLAVRVFLAPWKK
notes: Synthetic peptide, juxta-membrane 23 amino acids of the mouse CD31 ectodomain; In the SPR assay it was both coated on the CM5 chip and injected as analyte
With B1 the Kd [11] was 17.8 µM, the koff [11] was 0.00158 s⁻¹ and the kon [11] was 134 M⁻¹ s⁻¹.

From US20190177396A1 (INSERM INSTITUTE NATIONAL DE LA SANTE ET DE LA RECHERCHE …, published 2019)
